Assay in all cases: BLI
One assay deals with S1-biotin(ACRO).
Assay [1] concerns the target S1.
The target of assay [2] is S1. The source holds these as a separate data set.
The target of assay [3] is S1. The source holds these as a separate data set.
For assay [4], the target named is S1. The source holds these as a separate data set.

Substitutions are numbered along the chain they refer to. Like-named read-outs stand apart in the source and are kept apart here.

B1: Ab 27 (Fc fusion)
VH: QVQLVQSGTEVKKPGASVKVSCKASGYSFTGSHLHWVRQAPGQGLEWMGWINPDSGVINYAQKFQGRVTLTRDTSISTAYMELSGLRSDDTAVYYCARDKAIGYVWALDYWGQGTLVTVSS
VL: QSALTQPPSVSGSPGQSVTISCTGTSSDVGTYNRVSWYQQPPGKAPKLMIYEVSNRPSGVSNRFSGSKSGNTASLTISGLQAEDEADYYCSSYTRTFTYVFGTGTKVTVL
For B1, the Kd with S1-biotin(ACRO) and with S1 [1] was below 0.001 nM each time.

B2: Ab 30 (Fc fusion)
VH: QVQLVQSGGGVVQPGKSLRLSCTASGFTFSDFPIHWVRQAPGKGLEWVGVISYDGNIKYYGDSVKGRFTISRDNAKNSLYLQMNSLRVEDTAVYYCARGGSSFDIWGQGTTVTVSS
VL: SYELTQPPSVSEAPRQRVTISCSGSTSNIGNNAVSWYQHLPGKAPKLLIYYNERLPSGVSDRFSGSKSGTSASLAISGLRSEDEADYYCAAWDDSLSGHVVFGGGTKLTVL
Consider B2, for which the Kd in the assay with S1 [1] stood at 0.314 nM.

B3: Ab 15 (Fc fusion)
VH: QVQLVQSGGGLVKPGRSLRLSCTASGFTFGDYAMSWFRQAPGKGLEWVGFIRSKAYGGTTGYAASVKGRFTISRDDSKSIAYLQMNSLKTEDTAVYYCTTADDDMDVWGKGTTVTVSS
VL: NFMLTQPHSVSESPGKTVTISCTRSSGTIASNYVQWYQQRPGSAPTTVIYEDNQRPSGVPDRFSGSIDRSSNSASLTISGLTPDDEADYYCQSYDTSNHYVFGTGTKVTVL
Consider B3, for which the Kd with S1-biotin(ACRO) and in the assay with S1 [1] was 0.033 nM throughout.

B4: Ab 5 (Fc fusion)
VH: QVQLVQSGGGVVQPGRSLRLSCAASGFTFTTYGMHWVRQAPGKGLEWVAVISYDGSIKNYADFVEGRFTISRDNSKNTLYLQMNSLRPEDTGVYYCARVGDSSSYYGIDAWGQGTLVTVSS
VL: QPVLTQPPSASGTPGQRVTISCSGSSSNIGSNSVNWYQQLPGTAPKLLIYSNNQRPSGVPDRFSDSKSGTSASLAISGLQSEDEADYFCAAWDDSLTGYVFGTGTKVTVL
In the assay with S1 [1], B4 returned a Kd below 0.001 nM.

B5: Ab 25 (Fc fusion)
VH: QVQLVQSGGGLVQPGGSLRLSCAASGFTFSSYWMSWVRQAPGKGLEWVANIKQDGSEKYYVDSVKGRFTISRDNAKNSLYLQMNSLRAEDTAVYYCARGFYYYGAFDIWGQGTTVTVSS
VL: NFMLTQPHSVSESPGKTVTISCTGSSGSIASNYVQWYQQRPGSAPTTVIYEDNQRPSGVPDRFSGSIGSSSNSASLTISGLKTEDEADYYCQSYDSSNHWVFGGGTKLTVL
In the case of B5, the dissociation constant (Kd) in the assay with S1-biotin(ACRO) and with S1 [1] was 10.1 nM throughout.

B6: Ab 2-7 (Fc fusion)
chain 1: QVTLKESGPTRVKPTQTLTLTCTFSGFSLSTTGVGVGWIRQPPGKALEWLALIYWNDDKRYSPSLKSRLTITKDTSKNQVVLTMTNMDPVDTATYYCARISGSGYFYPFDIWGQGTTVTVSS
chain 2: B5 VL with G24R, A44S, G68D, T83A, N98S, H99L
Take B6: the Kd in the assay with S1 [1] and with S1 [2] was below 0.001 nM each time.

B7: Ab set2-7 (Fc fusion)
chain 1: B6 chain 1
chain 2: B5 VL with G24R, A44S, G68D, T83A, N98S, H99L
Consider B7, for which the Kd in the assay with S1 [3] and with S1 [4] was below 0.001 nM in each case.

B8: Ab 23 (Fc fusion)
VH: EVQLVQSGAEVKKPGSSVKVSCRSSGGTFSTYGITWVRQAPGQGLEWMGRIIPSLGIPNYAQKFQGRVTITADTSVSTAWMELSSLESDDTAIYYCARENIDLATNDFWGQGTLVTVSS
VL: QSALTQPPSASGSPGQSVTISCTGTSRDIGAYGYVSWYQQVPGKAPKLIIYEVRNRPSGVSSRFSGSKSGNTASLTISGLQAEDEADYYCSSYTSSSTLDVVFGGGTKLTVL
For B8, the Kd in the assay with S1-biotin(ACRO) and with S1 [1] was 0.338 nM each time.

These data come from US20240409617A1 (published 2024).
